assay: protease stability score; higher = more stable; yeast display proteolysis, trypsin and chymotrypsin;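 note: relative to predicted unfolded state with 0 unfolded-like and 1 meaning tenfold more protease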

Sequence | protease stability score
DKVEDDLREFARLFVEYMETGDEDKVSKLMDPSMRIEIHINGKDIKYHGREELNRWRSEEMKRVDHEKWHHKHIRVIGDKVDIDFRRVEHVGDKHLVFQVHIELFVINGKLHTVIIRIE | 1.53
SEREKESERLWRLSAEVMETGDESMSLKEFDPHYRVLFDGQDFHGREQWKEFLERFDHEALKRFHEKRDDRQGDKAIHEGDLDLVLNYGDKQLRTRRDVIFYITKVNGKWMIKIVEFV | 0.084
DEDTRIMEELLELTMEHVKTGDESSFRKLADPNVRMEYNGVEIHGREEASELFLEEMERIKNLTLRIKRLHIQGDKVIIYEEYEYGEKSWTVTYEAYKINGRWLMESIRFG | 1.13
SEEHKELRELIRITFEDLFTGDEDAFMRLFDPHTILHIGEKRYIGREIIIHALRWLGVDHMEIKHIDIQGEKVDMHMHLKVGDKSWTMHLHIEKFNGQWHSKHIEIR | 1.95
HEEEKQMREAVEEAYHVLRTGDEKTIRELADPDVRLDINGKEIIGRELFFRHLWYEFYFFKNMRITIKHYEIQGEKVHIHIEIDWNGKELRSHMEVDKVDGRWLLHSVIFR | 0.783
DEEEEIARRIFKIFVHNVLTGDEDSLRKMIDPNTRLHVDGQELHGREQALTFLHEMRIDHMELRELRVIDGRIISHIRVDGEINGRRRDIQTEIILYKVDGRWVIRQMRFQ | 2.39
DRREEMEEIADELRRELIKTGDEHSTHRLADPHAKLHIGDKEYHGMEFMIRFFKILGVDHLRLQDIRVIDGQVHIHITSRVGDKRVHVEIISDKYNGRWRLREVIITID | 0.711
TEEHKFVKDFFIHMIRAWITGDEKELHRLFDPHTKVRIGDYVSHGMERTLEIWHKLWKELGFKHLEVREVRAQGDKSHTDVVYHVDGREKKVHIELEVFNGKATHLELDEK | 0.519
DTEDKLSEEALKDLLEKVKTGDPQVMEELADPEVKVDIGDKNLHGREEYTRWVEKLWKRVPNLKLEIDHVEFQGDYVLIEGRIIYNGRKHKIKIHSLKIDGRWLIETVRIR | 1.39
DDEKEITHTLSEIWIHTVRTGDEDTATNLVDPHARLDYNGREFHGRELISELMIRHLTEWRITHIHIDHVRVINGRFEIHSHQDGHFDGVRRKVEVHIDIIIIDGVVKEIRIRVH | 1.17
DEDEKELERVMREFMRVWLTGNEKDFKELMDPHVRLEIGDKEHHGREEAVRILHEWRRKLGVDHSDYHHIHVQGEKMHVRGISEYNGRTVEVIIEVLIINGKLRSVHVEFR | 2.57
SEEEDLFRKIIELLLRLSKTGDEETWRRLMDPHARLEINGRIFHGREYAERFMTQFDHIHSIEIKDMHIYNGKVEEHGHVDGIVNGRRTKHDMVFILVKVDGVWLIEEVVVR | 1.39
DELEEKIHRWAELFLKMVLTGNEEFFRHLFDPDARSDINGVRVIGREDMDEVLKFWLDHLRFEHWVYTEVRIYDGRMEVHTRHDIDVNGVLYRRQMRIHLDVVDGRVKEASITRE | 1.37
DEDEHNVREFIERIMRILETGDEHDFKRMADPDVRFEIGDKLIHGMETWSEIHTDELKRIPNLKIQLRIHDVHAYNGRAHVHSHFVIEFDGKRHIIETEMFIIKINGQWHLRSIKYK | 1.46
HEDEEEMKKFIHRWENDLRTGDEESHRRLADPNTLLVVNGRRVHGMEAVLHIVREMRLHEVYIDDIRIINGRAHTELTVKGEIDGVKHWSHTHIHVTKVNGQWHIDTIRIL | 0.663
SEDETEEHKFHNILSHAWETGDEEVLERLADPHVRFFYNGKEQVGRELMVELLRELLKRLGVDRIEIEIKDVRLQGDKARWHGDNVFNGRRVHVHISLVKVNGRWRIHHLDMG | 1.31
TEEEHWALHLLERILHHMLTGNESFIKHLFDPDTRWEVNGVENIGMERHSKLFLHMRIESIEIRSIHVRIVGEYIHIDVEIDIRGIVNGQRVEYHKKIHVIISKVNGRWHIKHYHESDE | 1.22
SEWEEELERLLREIIHSILTGDEKRLRELMDPNAKFHILVNGVEIDLMGMEHHSHWFREWLKHARINTVHIRHYDVVGEKARSDTELDMEIDGRRIRTRTELILVVIDGRVHSLEIRIK | 2.02
TSHEHELRRVAEEIIHAYLTGDWWRWERLFDPHVRVETQVGDKRIERHGREDLIRFLNEMRVHRIEIKTRELYDGRVHIHSRMDYEVDGQRDDVDLHLHFHIVDGKVEEVVITIK | 1.47
NEEEDINHHIVELFFHLLHTGDWEELEKLADPHARLEINGRRFHGRENVVTQLWELLHRIDHVEIRDLRVQGDKVHVDTRLRIGDKEKKTEWDIVVVNGKIKRSRVRVH | 2.02
SEEREDSKKFLELVLTSWITGDWRQINKNFDPHARSHVGDKEIHGMDHVAHRMNEHLERADHIHFYLEDEHIQGNKIHVDGILQLVINGVDIRMRIRLVVLKINGRWQVHSIEIK | 1.14
SEDEEDAERLIRELEHAWHTGDEKYLWEMIDPHARFIIGDKEFHGRDLQLRILHRLIKELGVSRFELHIEHFEVIDGRLHTEGRLNVNGRILKTHLILRKIDGRWLIKSDELR | 1.49
SLEEHAFRLALHLLENMWLTGDEELFERLLDPHARLEFENHKYHGRDIVSEFMRRIKNLTFHRIIFRNRDVQGEKVSFIMETDVEWNGKRHIEHTHITVHKINGVWLIHEVDIR | 1.42
HEEEKEIEKWVRLLLEVIQTGDEHWFERMADPNARVEVGEFEKHGRELFFEMTVRIVKKLGVDHVQLRRFDLIDGVALDHMELRIGDKHVEFIHISSKVNGRWFDKEVRVREI | 0.939
DEEEQRIEEMLKKWLEAMETGDEDLEKQLADPNVRFHIGDKEHVGREELSQVKKRLGIKVMILHDERVDRQGDWIVMHLDIILEFDGRRFRVRFNLFVEKIDGRWLVKKVEIHLR | 0.936

Sequence | protease stability score
DEEDKKVKYFLNEWLHAVKTGDEEHLKRLADPRTYEQVGDKHYHGRETFRRFLHDLLEEMRFHRIHIKFSQMVNGVFYVNGELDGTFDGRRHRTDMRLEFEVVNGRIHELRIEIV | 1.18
TEEEELRRRHAKELLDIWRTGDEHLMSHLADPHVRSIIDGVTVIGRDEWMKYLRILREHLGVKHIEHKDFNIQGDKVDVHGTMHVNGREIEVRSHFYVIDGRVRSNEIRFH | 0.256
SEEEELHEILLHLLLLMHTTGDEHLLRRLADPNARVDINGREWHGRDLMVKFLVEIRIHRTRIHDERDIDGRVHMETRVDGLWNGVRYTFDTRIHAVKVNGRWLLESYSVE | 1.21
SEKEEDLRRAEQDFLREMETGDEHLTSELADPHVRIDIGDKVYHGREFWSKFVRRVKNATIQITHRQYQGDKLWLDGILNVDGRNIRMLVIIHKIDGVWVFKYVDIH | 2.27
SEEHEKTRRALELWIDVMKTGDPEHILRLLDPHTKIHQGEFELHGRHDAHRWLSRLGVERIHFELKDVRYFDGQILVDGVIFFNGRESRVNVVAMKVNGRWFVDSLEIQ | 0.755
DETTKLTEELLRLIWEVLITGDEHLFERLADPHVRVDEIYGDKRIELHGRERVSTRLHELRIKRVELKEIEVFNGRSHANTHVNGHIDGVTFRSDTRWEFVMIDGKLEEVRRKIE | 0.597
SEDDEDLKFAWDHLLRSWLTGNFDFFKEMFDPHTRLEQGEKEHHGRNAFERYLRELGIDHIKNIHIEDVEIQGDKMRLHGRQHIFVNGREINLEVTYIILKINGQWHLHRVRIK | 0.846
DEDREDARKIFHDFIRALNTGDEDTLAELLDPNTKIHIGEFNLIGMERVREWLQRVDHTHTHIKVRRVDVVNGQIIMDTETEIHIHIGDFTLEIQTRTEMVILKINGRWFIKRVNLI | 1.72
SEEHDKLQRLIRQWWSEFETGDEDKLTEMFDPHARLHIDGRDVIGRENVSKFVFDFFFEMRIHRTHIEHVDAQGDFLILHYHVRGTVNGRESDIHVLIIFTVVNGRMKSVHVHNE | 1.38
DDDKKRAEELLRLWHEFFETGDEHDMNRNLDPHAKVDVNGKEIHGREFVSEWLVRKVKFFKGIKLEHKRSHFVNGRAHLHTEINFDGVEFEVIIHSDKINGRWLVHEIIIK | 1.17
DELDRLMRHISKLWVELLLTGNEEITSHLADPDARLHINGRDTIGREEYIRMYHEWLNEIRIRDFHIHSIKTQGNKANTDSELDLEVNGKRLDLRITIIILNINGRMKSVKVEVI | 0.99
DEDTHLAKVVLEIFLHLMRTGDFKETWEYADPHVRIDIGDKHLHGREELARLMEELGIDHFEIRDVHLQGDKLHIRTDVDFNGVRTHVVFIILKVDGRWVLTHVRIE | 1.46
DDIEKDMERFTHVWLEAWRTGDEDLAKELFDPNTRVEQGDKKYHGRTEFVNLLSHIRIRDMRIHDIHYIVIDGKAIIDFDGELTIDVNGRFHRHRVIIHVEVIKINGQWEISQMRIEVR | 1.11
DEETKIIEHILEHWLRLIQTGDFHELFRLVDPNVRIDINGVEYHGREEMIKFWKEEVDKLGVDRIHTDLNRNEYQGDKIILHQEVRINGRHIDIHVHAEKVDGVWILRILKRD | 1.57
DEEERERKHIAEEFAHELETGDEERFVELADPNVRSDINGKQYHGRDRFRDWQEQWHEKVKNLRFEIERWRVIGDFVRIDVRIRIDGRRHNVEIIQVVVNGRITFLEIRVK | 0.799
DEDEEQAEKMIKIWIHDMATGNEESLVRLADPRVRSEVDGVQLHGRESLRKFLHDEWRDLGVDRIQVHVRRYHVFDGRLHLDGEVIVNGQDKTMHIVLIKVDGRWHLKSVHFR | 2.14
DEDEEFSKEAFEMVEWVIRTGDERLIEHMMDPNAKILIDGQEFWGRHIFSKHVEELGIDHIDDFQVKDVTFFNGRVNLNGELRGNFNGKETTFELHTIALKVNGQWINHSLEIK | 0.658
DEFHELARHALKLFKDTMDTGDEHTLEHLVDPNVRLLVDGQEIHGREAMEEFWRRVPNLRLYFHDVRVIGDKIIVDGKIEYGDKEIDSRIYLRKINGRWRFESVELR | 1.4
DSHRELLERFARLMLHLWLTGDEDELHKYMDPHVRYHQGEFHIHGREEVTRWASELHKKLGINHEDQERVNIYDGKNHVDTRLDINGRHLRVELRIDVWNGRIREVQVHHR | 1.41
TEKEEIVEETMKQLLHAEETGDWRTIEHLLDPNTRIIVEFNGVEIVLHGREEAVKFMFDFARHWRIKDFKVESIDIQGNKVHMRIRVDMEFNGKHIRTETNIHTVVVDGRIKSHERRVE | 1.63
DEIDEAIIEFFRLMLEWNETGDEEYIDTLIDPHTQLKIIYGDKDREFIGREEYFKIVLEWRIKEVRIHSIHTQGNKLNIDGEINGNIDGRDTKTRINIHFIVVNGRLKTITLRFE | 2.43
DEREEFVLSMAELWIHAVLTGDEELERQLIDPHARNNINGRTIHGMEMFNKFWIRLLQEIRFEIEIRRFHIQGEKMHFDGVLRLRYDGREEVLRVHVEIVIVDGRLHEVHIKIK | 1.33
DEERKLATELFKWLIDLYLTGDEETFEKLADPHYLSDVNGRNIHGMELISHIWREEIEKYGWEIHIKIRHIELQGDKSKSETEIHNNYDGRRIVFETRIIVRIVNGRIKSIEVRFR | 1.28
DEHDKLLKELSERMFELWETGDEDRLHKLADPHALSRVGEFSIHGMRNHMEWLREWLRRVKNATIHVRDVDLQGNKSRFDHELIIDGVELKVIDNIVLVNGRIKEIRIEIN | 0.027
DEQKHVFNNVLRWLLESLETGDEEDLERLMDPNTRLHINGQDLHGREALRKHIEHRLKSLGVDHVHLRVHDVHIIDGKIEVDSELDLKIGDKEIRMKVRLIALKINGRWLVKHFDVT | 1.29
